The source of these data is article PMC3526308.

This data set addresses T1, LtmA (Ms6479) (Mycobacterium smegmatis mc2155, UniProt A0R6A5 1-189).
T1 sequence: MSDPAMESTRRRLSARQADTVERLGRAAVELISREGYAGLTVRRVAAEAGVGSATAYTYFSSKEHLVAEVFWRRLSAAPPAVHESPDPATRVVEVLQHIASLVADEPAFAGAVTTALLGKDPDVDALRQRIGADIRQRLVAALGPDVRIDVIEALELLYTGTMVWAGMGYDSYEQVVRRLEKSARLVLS
The experiment in a line: EMSA. Background: A gel shift assay detects complexes by their altered migration in electrophoresis.

B1: Ms6484p5 (dsDNA)
DNA 1: CAAACTATAGCAGCTCTCCACCTGACACGGTTTCGGAG
DNA 2: CTCCGAAACCGTGTCAGGTGGAGAGCTGCTATAGTTTG
In the case of B1, the binding result is recorded as “no binding”.

B2: Ms6484p4 (dsDNA)
DNA 1: CTCCGAAACCTCTGGACATGTGTCCAGACTATAGTTTG
DNA 2: CAAACTATAGTCTGGACACATGTCCAGAGGTTTCGGAG
In the case of B2, the binding result was “binds”.
